# Patent publication US20260258115A1 (MAPP BIOPHARMACEUTICAL, published 2026)
# Target: RSV fusion glycoprotein (RSV F) on RSV-A2 virus (respiratory syncytial virus, UniProt P03420 26-574)
# Test: cell-based or functional assay
row,Binder,Neutralization IC50 (RSV subtype A) [µg/mL]
1,"ADI-41423 (antibody, V domains shown) VH: QVQLVESGGGLVKPGGSLRLSCAASGFTFSSYSMNWVRQAPGKGLEWVSSISSSSSYIYYADSVKGRFTISRDNAKNSLYLQMNSLRAEDTAVYYCARDPSSSWNRNDYWGQGTLVTVSS VL: QSVLIQPASVSGSPGQSITISCTGTSSDVGGYNYVSWYQQHPGKAPKLMIYDVSNRPSGVSNRFSGSKSGNTASLTISGLQAEDEADYYCSSYTSSSTLVVFGGGTKVTVL",> 25
2,"ADI-41424 (antibody, V domains shown) VH: QVQLVQSGAEVREPGASVKVSCKPSGYTFANYGISWVRQAPGQGLEWMAWISAYNGNTNYAPKVQGRVSVTTDSSTGIGYMELRSLRSDDTAVYYCVRDTPAIAGAATLDFWGQGTLVTVSS VL: DIVLTQSPLSLAVTPGQSASISCRSRQSHVFSDGNTYVSWFQQRPGRSPRRLIYRVSYRDSGVPDRFSGSGSGSDFTLRISRVEAEDVGVYYCMQGTHWPRTFGQGTKLEIK",0.28
3,"ADI-41433 (antibody, V domains shown) VH: EVQLLESGGGAVQPGRFLRLSCAASGFTFRSYGMHWVRQAPGKGLEWVAVISYDGSDKYYADSVKGRFTISRDNSKNTLFLLMNGLRAEDAAVYYCAKDIASAGTLRGSDVWGQGTMVTVSS VL: QPVLTQPRSVSGSPGQSVTISCTGTSSDVGGFNYVSWYQQHPGKAPKLMIYDVRVRPSGVPDRFSGSKSGNTASLTISGLQGEDEADYYCCSYTVTYTLVFGGGTKLTVL",> 25
4,"ADI-41437 (antibody, V domains shown) VH: QVQLVQSGGEVKKPGASVKVSCKASGYTFTHYGISWARQAPGQGIEWMGWINVHNGNTEYAQRFQGRVTMTTDTSTNTAYMEMTSLTSDDTAVYYCARDKIVVVVVPNYHGMDVWGQGTLVTVSS VL: not shown",> 25
5,"ADI-41438 (antibody, V domains shown) VH: QVQLVQSGAEMRRPGSSVRLPCKASGYTFVSHTIVWVRQAPGQGLEWMGGIIPSLRTPNYAQNFQDRLTITADESARTAYMELSSLTSNDTAVYYCARETFQGGYYLDYWGQGTLVTVSS VL: EIVMTQSPGTLSVSPGDTAALSCRASQSVGRNLAWYQQKPGQAPRLLIFGASTRAADIPGRFSGSGSGTEFTLTITSLQSEDFAVYYCQQYNKWPPYTFGQGTKVEIK",> 25
6,"ADI-41439 (antibody, V domains shown) VH: QVQLVQSGTEVKNPGASVKVSCKASGYTFSNYGITWVRQAPGQGLEWMAWISAYNGNILYAQNVQGRVTMTTDTSTSTGYMELRSLRSDDTAVYYCARDAPAGTLTLLDYWGQGTLVTVSS VL: DIVMTQTPLSLPVTLGQPASISCRPSQSLVYSDGNTYLNWFQQRPGQSPRRLIYKVSNRDSGVPDRFSGSGSGTDFTLRISRVEAEDVGVYYCMQGSHWPYAFGQGTKVEIK",0.34
7,"ADI-41441 (antibody, V domains shown) VH: EVQLVQSGPGLVKPSETLSLTCSVSGASISRYHYYWGWIRQSPGKGLEWIGTIYYSGTTYYNPSLESRVTISADTSKNQVSLKLTSVTAADTAVYYCARGSGDTALDFSFEYWGQGALVTVSS VL: DIQLTQSPSFLSASVGDRITITCRASQGISNSLAWYQQKPGKAPKLLIYAASTLQFAVPSRFSGSGSGTEFTLTISSLQPEDFATYYCQQLDSYPLTFGGGTKLEIK",> 25

# Target: RSV F on RSV-A2 virus (Respiratory syncytial virus, RSV-A2, UniProt P03420 26-574)
# Test: cell-based or functional assay
row,Binder,Neutralization IC50 (RSV subtype A) [µg/mL]
1,"ADI-41772 (antibody, V domains shown) VH: EVQLLESGGGLVEPGTSLRLSCEASGFTFSDYYMSWIRQAPGKGPEWVADISSRGVVTYYADSVKGRFTISRDNAKNSLYLQLNSLGAEDTAVYYCARLREVTYIMPTIDYFDYWGQGTLVTVSS VL: SYELTQPPSVSVSPGQTARITCSGDAFVKKYAYWYHQKSGQAPVVVIYEDTKRPSGIPERFSGSSSGTTATLTISGAQVEDEGDYYCYSRDFSGDHGVFGGGTKLTVL",0.04
2,"ADI-41783 (antibody, V domains shown) VH: QVQLVQSGDEVKKPGASVKVSCKSSGYTFTHFGVSWVRQAPGQGLEWMGWISGYNGNTNYAQKLQGRVTMTTDTSTTTAYMELTSLRSDDTAVYYCARDSPAGTVTLDFWGQGTTVTVSS VL: not shown",0.25
3,"ADI-41788 (antibody, V domains shown) VH: QVQLVQSGAEVKKPGASVKVSCQASGYTLTTYDINWVRQAPGQGLEWMGWMNANSGNTGYAQKFQGRVTMTRNISISTAYMELSSLGPEDTAVYYCARGFYKWNDWSFDYWGQGTLVTVSS VL: QSVLTQPPSVSVAPGQTARITCGGNNIGSKSVHWYQQKPGQAPVLVVYDDSDRPSGIPERFSGSNSGNTAPLTISRVEAGDEADYYCQVWDGDSAHHAVFGGGTQLTVL",0.47
4,"ADI-41792 (antibody, V domains shown) VH: QVQLVQSGGGLVKHGGSLRLSCAASGFTFSSYSMNWVRQAPGKGLEWASSISSSSSYIYYADSVKGRFTISRDNAKNSLYLQMNSLRAEDTAVYYCARTEYSSSSPIFDYWGQGTLVTVSS VL: QSVLTQPPSVSGAPGQRVTISCTGSSSNIGAGYDVHWYQQLPGTAPKLLTYGNSNRPSGVPDRFSGSKSGTSASLAITGLQAEDEADYYCQSYDSSLSGSVFGGGTKVTVL",> 25
5,"ADI-41800 (antibody, V domains shown) VH: QVQLVQSGAEVKKPGASVKVSCKASGYTFTDYYMHWVRQAPGQGLEWLAWINPYTGGTNYAQKFQGRVTLTRDTSVSTTYMEVTRLRSDDTAVYYCARGESFHHWGQGTLVTVSS VL: QSALTQPASVSGSPGQSITISCTGTSSDIGGYDYVSWYQQHPGKVPKLMIYEVSTRPSGVSIRFSGSKSGNTASLTISGLQAEDEADYYCSSYTRSTITSVVFGGGTKLTVL",> 25
6,"ADI-41810 (antibody, V domains shown) VH: QVQLVQSGGGVVQPGRSLRLSCAASGFNFHNYAMHWVRQAPGKGLEWVAVISYDGGNKHYADSVKGRFTISRDNSKNTLYLQMNSLRPDDTAVYYCARGHSDWRGDYFDFWGQGTLVTVSS VL: DIQLTQSPATLSVSPGERAILSCRASQNVGTNLAWYQQKPGQAPRLLIYDASTRATGIPARFSGSGAGTDFTLTISGLQSEDFAVYYCQQYINWPPYTFGQGTKLEIK",> 25
7,"ADI-41812 (antibody, V domains shown) VH: EVQLVESGGGLVKPGGSLRLSCAASGFTFSSYSMNWVRQAPGKGLEWVSSISAGSSYTDYAESVKGRFTISRDNAKNSLYLKMNSLRAEDTAVYYCARDPGYCSSNSCTVAMDVWGQGTTVTVSS VL: SYELTQPPSVSGAPGQRVTISCTGSSSNIGAGYDVHWYQQLPGTAPKLLIYGNNNRPSGVPDRFSGSKSGTSASLAITGLQAEDEADYYCQSYDRTLVIFGGGTKLTVL",0.17
8,"ADI-36675 (antibody, V domains shown) VH: EVQLVESGGGLVQPGGSLRLSCAASGFTFNRFAMSWVRQAPGKGLEWVSGISGSGGSTLYADSVKGRFTISRDNSKNTLYLQINSLRVEDTAVYYCASRSSYDDVWNGYVDWDWGFDFYYYGMDVWGQGTTVTVSS VL: QAVVTQEPSMSAAPGQKVTISCSGGDSNIRNNYVFWYQQLPGTAPKLLIYDNTKRPSGIPGRFSGSKSGASATLDITGLQTGDEADYYCGTWDSSLSALVFGGGTQLTVL",0.006
9,"ADI-41563 (antibody, V domains shown) VH: QVQLVESGPGLVKPSETLSLTCTVSDDSITNNFWTWIRQPPGKGLEWIGYIYYSGSTNYNPSLKSRITMSVDLSKNQFSLKLSSVTAADTAVYYCARLTSGGVDYWGQGTLVTVSS VL: QSVLTQPPSLSGAPGQRVTISCTGSSSNIGADYHVHWYQQLPGTAPKLLIYQNTNRPSGVPDRFSASKSGTSVSLAITGLQAEDEADYYCQSYDSSLSAWVFGGGTKLTVL",0.0323
10,"ADI-41568 (antibody, V domains shown) VH: QVQLQQWGARLLKPSETLSLTCAVYGGSFSGYYWSWIRQSPGKGLEWIGEINHSGSTNYNPSLKSRVTISRDTSKKQFSLKVSSVTAADTAVYYCARDPPIRCNGDSCKSDQYRYGMDVWGQGTTVTVSS VL: QPGLTQPPSVSVSPGQTARITCSGDALPKQYAYWYQQKPGQAPVLVIHKDNERPSGIPERFSGSSSGTTVTLTISGVQAEDEADYYCQSADTSGSYRLFGGGTKLTVL",> 25
11,"ADI-41571 (antibody, V domains shown) VH: EVQLLESGGGLVKPGGSLRLSCEASGFPFNSYHMNWIRQSPGKGLEWVSYITGGSSFSNYADSVKGRFTISRDNAKNSLYLQMNSLRAEDTAVYYCARTTLDCTSTSCHYRFDYWGQGTLVTVSS VL: QSVLTQPPSVSGAPGQRITISCNGSNSNIGAGYDVHWYQQLPGKAPKLLIYSNNNRPSGVPDRFSGSKSGTSASLAITGLQGEDEADYYCQSHDTRLSGNVVFGGGTKLTVL",0.0315
12,"ADI-41584 (antibody, V domains shown) VH: QVQLVESGAEVKKPGASVKVSCKASGYTFTDYYIHWVRQAPGQGLEWVGRINPNSGYINYAQKFQGRLTMTRDTSISTAYLELSSLRSDDTAVYYCTRLPLLEPLNFFDYWGQGTLVTVSS VL: QSVVTQPPSVSGAPGQRVTISCTGSSSNIGAGYDVHWYQQLPGTAPKVLIYGNNNRPSGVPDRFSGSKSGTSASLAITGLQAEDEADYYCQSFDSSLSSSYVFGTGTKLTVL",> 25
13,"ADI-41585 (antibody, V domains shown) VH: EVQLLESGGGLVKPGGSLRLSCAASGFTFADYYMSWIRQAPGKGLEWVSYISGGSSFTNYADSVKGRFTISRDNAKNSLYLQMNSLRADDTAVYYCARGISPALGGGEYFQDWGQGTLVTVSS VL: QPVLTQPPSVSGAPGQRVTISCTGSSSNIGAGYDVHWYQHLPGTAPKLLIYGNSNRPSGVPDRFSGSKSSTSASLAITGLQAEDEADYYCQSYDSSLGGYVFGTGTKVTVL",0.0641
14,"ADI-41589 (antibody, V domains shown) VH: EVQLLESGGGLVQPGGSLRLSCAASGFTFNFFALTWVRQAPGKGLEWVSAISGSGESTYYADSVKGRFTISRDNSKNTLYLQMNSLRAEDTAVYYCAKFARSGDYASFFDYWGQGTLVTVSS VL: not shown",> 25
15,"ADI-41594 (antibody, V domains shown) VH: EVQLVESGGGLVKPGGSLRLSCAASGFSFSSYYMNWVRQAPGKGLEWVSSISPSSSYTNYADSVKGRFTISRDNAKDSLYLQMNSLRAEDTAVYYCARDGLLGITIFGVVQDYWGQGTLVTVSS VL: QSVVTQPPSVSGAPGQRVTISCTGSSSNIGAGYDVHWYQQLPGTAPKLLIYGNTNRPSGVPDRFSASKSGTSASLAITGLQAEDEADYYCQSYDSSLSVVFGGGTKLTVL",0.0406
